# Test results from the supplement of paper PMC10065799, “High-throughput profiling of sequence recognition by tyrosine kinases and SH2 domains using bacterial peptide display” (eLife, 2023).
# System: c-Src
# Test: phosphorylation enrichment, bacterial display (enrichment ratio); higher = better substrate or ligand; peptides without Tyr show the background
# 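Note: 11-residue human phosphosite peptides and single-mutation variants displayed on the E. coli surface, counted by deep sequencing, each peptide's frequency after selection divided by its frequency in the unselected input library; frequency after pTyr selection over input frequency; kinase dosed for 20-30% of maximal phosphorylation in three min.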
row,Sequence,phosphorylation enrichment
1,CKSIHYDLVFL [COL22A1_Y37_V35I],0.562
2,KNCFKYFMSDD [ATRX_Y203_YF],0.646
3,SENPKCPEVGD [TMEM43_Y233_Y233C],0.471
4,ACQGKYTPSSQ [ALDOA_Y343_G347S],0.449
5,RSSKRYLKTRS [LPL_Y329_M328R],0.713
6,SNKELYEKFMI,1.78
7,TESNNYIFTTL [FAM83B_Y637_K640T_YF],0.537
8,CTTIHYNYMCY [TP53_Y234_N239Y],2.17
9,SVKVFYKKCWF [EPHA7_Y202_S207F_YF],0.478
10,QTSSNYDDAMQ [ZNF281_Y531_I527T],0.44
11,DRKRQCELLKL [KIF4B_Y684_Y684C],0.493
12,GCKNRYDKDKP [THAP1_Y14],0.591
13,VIEQSYNETWL [SLC2A4_Y56],0.572
14,IPQEEYKATGL,0.535
15,QDRTYYESVRT [SPEN_Y633],2.66
16,GLDGSYLLRYS [SH2D1A_Y29_D33Y],0.441
17,VVGMLYVGRLP [LAMA2_Y2886_G2889R],0.422

row,Sequence,phosphorylation enrichment
1,DEQKKYFNAMK [SCN5A_Y1494_E1489D_YF],0.548
2,RSSPTYRDCLQ [LARGE2_Y682],0.369
3,YRDMDYRSYPR [RBM10_Y41],0.547
4,LILENYGADID [DNAH5_Y596],0.56
5,QRHYVYYYSYL [PTEN_Y176_R173H],5.11
6,AYQGKYTPSGQ [ALDOA_Y343_C339Y],0.35
7,GRMLQYLTVND [PPFIBP2_Y663_R658G],0.436
8,LAVVDYMRRQK [ATM_Y1915],0.553
9,LEPGIYIPEDD [XPNPEP3_Y455_I450L],0.518
10,VYSTDYYRVGG [NTRK2_Y706],4.67
11,VRSNHYAPEED [TJP1_Y1346_D1347A],0.434
12,CHKCTYKVTGL,0.504
13,TRNREYDDIDD [TTYH2_Y424_D423E],0.581
14,GKVADYIPQLA [GLS_Y249],0.349
15,SVVGPYEPPEV [TP53_Y220_V218G],0.441
16,FSIDFYRVGGH [NTRK2_Y707_T704I_YF],0.436

# Target: Hck (UniProt P08631)
# Sequence (P08631 whole entry, looked up): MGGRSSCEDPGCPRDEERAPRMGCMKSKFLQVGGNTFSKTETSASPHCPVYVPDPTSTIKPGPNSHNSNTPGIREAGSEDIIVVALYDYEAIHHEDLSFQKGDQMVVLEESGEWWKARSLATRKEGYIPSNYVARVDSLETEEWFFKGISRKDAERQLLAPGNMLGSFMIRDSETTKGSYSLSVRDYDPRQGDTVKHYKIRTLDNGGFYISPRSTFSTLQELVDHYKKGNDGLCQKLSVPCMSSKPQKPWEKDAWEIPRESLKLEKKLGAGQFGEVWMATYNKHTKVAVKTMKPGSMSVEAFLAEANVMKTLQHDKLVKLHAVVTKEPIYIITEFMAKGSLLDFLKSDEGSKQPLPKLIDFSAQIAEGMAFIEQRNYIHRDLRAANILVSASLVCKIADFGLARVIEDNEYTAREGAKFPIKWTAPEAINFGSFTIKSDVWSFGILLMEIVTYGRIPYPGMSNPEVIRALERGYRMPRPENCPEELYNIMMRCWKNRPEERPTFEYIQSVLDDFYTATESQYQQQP
# Test: as above
row,Sequence,phosphorylation enrichment
1,CKSIHYDLVFL [COL22A1_Y37_V35I],0.686
2,KNCFKYFMSDD [ATRX_Y203_YF],0.556
3,SENPKCPEVGD [TMEM43_Y233_Y233C],0.487
4,ACQGKYTPSSQ [ALDOA_Y343_G347S],0.417
5,RSSKRYLKTRS [LPL_Y329_M328R],0.894
6,SNKELYEKFMI,1.45
7,TESNNYIFTTL [FAM83B_Y637_K640T_YF],0.571
8,CTTIHYNYMCY [TP53_Y234_N239Y],0.647
9,SVKVFYKKCWF [EPHA7_Y202_S207F_YF],0.513
10,QTSSNYDDAMQ [ZNF281_Y531_I527T],0.57
11,DRKRQCELLKL [KIF4B_Y684_Y684C],0.428
12,GCKNRYDKDKP [THAP1_Y14],0.596
13,VIEQSYNETWL [SLC2A4_Y56],0.512
14,IPQEEYKATGL,0.631
15,QDRTYYESVRT [SPEN_Y633],4.01
16,GLDGSYLLRYS [SH2D1A_Y29_D33Y],0.512
17,VVGMLYVGRLP [LAMA2_Y2886_G2889R],0.455

row,Sequence,phosphorylation enrichment
1,DEQKKYFNAMK [SCN5A_Y1494_E1489D_YF],0.419
2,RSSPTYRDCLQ [LARGE2_Y682],0.385
3,YRDMDYRSYPR [RBM10_Y41],0.4
4,LILENYGADID [DNAH5_Y596],0.889
5,QRHYVYYYSYL [PTEN_Y176_R173H],3.31
6,AYQGKYTPSGQ [ALDOA_Y343_C339Y],0.309
7,GRMLQYLTVND [PPFIBP2_Y663_R658G],0.489
8,LAVVDYMRRQK [ATM_Y1915],0.453
9,LEPGIYIPEDD [XPNPEP3_Y455_I450L],0.558
10,VYSTDYYRVGG [NTRK2_Y706],4.61
11,VRSNHYAPEED [TJP1_Y1346_D1347A],0.498
12,CHKCTYKVTGL,0.472
13,TRNREYDDIDD [TTYH2_Y424_D423E],0.609
14,GKVADYIPQLA [GLS_Y249],0.408
15,SVVGPYEPPEV [TP53_Y220_V218G],0.505
16,FSIDFYRVGGH [NTRK2_Y707_T704I_YF],0.456

# Target: EPHB2 (UniProt P29323)
# Sequence (P29323 whole entry, looked up): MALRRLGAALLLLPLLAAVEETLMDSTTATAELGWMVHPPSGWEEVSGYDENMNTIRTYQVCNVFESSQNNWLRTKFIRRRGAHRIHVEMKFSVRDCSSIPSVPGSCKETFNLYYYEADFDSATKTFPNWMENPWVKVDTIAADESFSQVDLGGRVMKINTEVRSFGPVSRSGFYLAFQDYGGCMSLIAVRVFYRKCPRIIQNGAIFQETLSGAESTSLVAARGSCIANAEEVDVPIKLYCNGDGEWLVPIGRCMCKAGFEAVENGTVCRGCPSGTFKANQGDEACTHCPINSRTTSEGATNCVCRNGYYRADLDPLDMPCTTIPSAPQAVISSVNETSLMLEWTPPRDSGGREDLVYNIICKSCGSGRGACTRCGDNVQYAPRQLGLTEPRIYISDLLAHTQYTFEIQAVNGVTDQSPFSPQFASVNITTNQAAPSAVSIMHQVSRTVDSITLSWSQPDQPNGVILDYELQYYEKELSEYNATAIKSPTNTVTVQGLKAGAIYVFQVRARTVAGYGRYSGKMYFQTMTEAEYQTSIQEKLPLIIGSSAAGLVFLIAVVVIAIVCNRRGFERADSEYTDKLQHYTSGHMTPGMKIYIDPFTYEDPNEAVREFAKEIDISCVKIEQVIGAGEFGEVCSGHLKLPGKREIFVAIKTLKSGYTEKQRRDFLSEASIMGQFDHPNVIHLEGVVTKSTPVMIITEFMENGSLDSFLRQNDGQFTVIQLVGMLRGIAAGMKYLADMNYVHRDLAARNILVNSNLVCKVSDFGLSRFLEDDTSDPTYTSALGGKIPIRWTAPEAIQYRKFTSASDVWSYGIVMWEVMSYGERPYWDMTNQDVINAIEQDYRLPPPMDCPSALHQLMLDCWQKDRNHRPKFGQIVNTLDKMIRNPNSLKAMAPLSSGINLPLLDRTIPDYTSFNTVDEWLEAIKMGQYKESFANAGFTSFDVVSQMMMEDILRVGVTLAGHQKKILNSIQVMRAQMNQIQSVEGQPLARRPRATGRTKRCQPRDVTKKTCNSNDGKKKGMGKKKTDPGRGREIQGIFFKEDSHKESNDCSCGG
# Test: as above
row,Sequence,phosphorylation enrichment
1,CKSIHYDLVFL [COL22A1_Y37_V35I],0.755
2,KNCFKYFMSDD [ATRX_Y203_YF],0.714
3,SENPKCPEVGD [TMEM43_Y233_Y233C],0.49
4,ACQGKYTPSSQ [ALDOA_Y343_G347S],0.389
5,RSSKRYLKTRS [LPL_Y329_M328R],1.11
6,SNKELYEKFMI,0.539
7,TESNNYIFTTL [FAM83B_Y637_K640T_YF],0.641
8,CTTIHYNYMCY [TP53_Y234_N239Y],3.42
9,SVKVFYKKCWF [EPHA7_Y202_S207F_YF],0.518
10,QTSSNYDDAMQ [ZNF281_Y531_I527T],1.14
11,DRKRQCELLKL [KIF4B_Y684_Y684C],0.404
12,GCKNRYDKDKP [THAP1_Y14],0.474
13,VIEQSYNETWL [SLC2A4_Y56],0.645
14,IPQEEYKATGL,0.635
15,QDRTYYESVRT [SPEN_Y633],0.758
16,GLDGSYLLRYS [SH2D1A_Y29_D33Y],0.455
17,VVGMLYVGRLP [LAMA2_Y2886_G2889R],0.643

row,Sequence,phosphorylation enrichment
1,DEQKKYFNAMK [SCN5A_Y1494_E1489D_YF],0.428
2,RSSPTYRDCLQ [LARGE2_Y682],0.472
3,YRDMDYRSYPR [RBM10_Y41],0.475
4,LILENYGADID [DNAH5_Y596],0.856
5,QRHYVYYYSYL [PTEN_Y176_R173H],2.16
6,AYQGKYTPSGQ [ALDOA_Y343_C339Y],0.299
7,GRMLQYLTVND [PPFIBP2_Y663_R658G],0.477
8,LAVVDYMRRQK [ATM_Y1915],0.337
9,LEPGIYIPEDD [XPNPEP3_Y455_I450L],0.717
10,VYSTDYYRVGG [NTRK2_Y706],7.13
11,VRSNHYAPEED [TJP1_Y1346_D1347A],0.611
12,CHKCTYKVTGL,0.462
13,TRNREYDDIDD [TTYH2_Y424_D423E],0.496
14,GKVADYIPQLA [GLS_Y249],0.477
15,SVVGPYEPPEV [TP53_Y220_V218G],0.526
16,FSIDFYRVGGH [NTRK2_Y707_T704I_YF],0.573

# Target: FGFR3 (UniProt P22607)
# Sequence (P22607 whole entry, looked up): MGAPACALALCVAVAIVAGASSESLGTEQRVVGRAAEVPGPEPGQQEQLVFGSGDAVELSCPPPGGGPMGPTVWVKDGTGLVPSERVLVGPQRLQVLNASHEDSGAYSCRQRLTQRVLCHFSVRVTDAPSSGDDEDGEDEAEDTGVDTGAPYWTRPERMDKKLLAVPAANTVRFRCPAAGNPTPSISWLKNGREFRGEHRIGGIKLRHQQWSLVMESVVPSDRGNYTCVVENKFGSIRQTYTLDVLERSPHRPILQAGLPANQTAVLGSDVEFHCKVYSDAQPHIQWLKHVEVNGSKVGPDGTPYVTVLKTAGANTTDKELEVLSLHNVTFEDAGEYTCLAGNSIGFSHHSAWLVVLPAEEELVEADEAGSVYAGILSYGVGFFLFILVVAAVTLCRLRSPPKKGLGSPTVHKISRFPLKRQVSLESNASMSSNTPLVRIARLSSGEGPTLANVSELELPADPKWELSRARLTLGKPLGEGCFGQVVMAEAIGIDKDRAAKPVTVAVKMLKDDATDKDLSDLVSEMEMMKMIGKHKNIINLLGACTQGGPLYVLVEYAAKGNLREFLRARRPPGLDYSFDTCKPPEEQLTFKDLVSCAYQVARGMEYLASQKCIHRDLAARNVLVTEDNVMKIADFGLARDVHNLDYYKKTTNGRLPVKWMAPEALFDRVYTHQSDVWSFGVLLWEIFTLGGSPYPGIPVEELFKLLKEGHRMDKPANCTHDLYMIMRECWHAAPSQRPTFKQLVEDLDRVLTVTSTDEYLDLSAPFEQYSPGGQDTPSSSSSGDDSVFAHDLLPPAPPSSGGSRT
# Test: as above
row,Sequence,phosphorylation enrichment
1,CKSIHYDLVFL [COL22A1_Y37_V35I],0.895
2,KNCFKYFMSDD [ATRX_Y203_YF],0.84
3,SENPKCPEVGD [TMEM43_Y233_Y233C],0.595
4,ACQGKYTPSSQ [ALDOA_Y343_G347S],0.466
5,RSSKRYLKTRS [LPL_Y329_M328R],1.11
6,SNKELYEKFMI,0.543
7,TESNNYIFTTL [FAM83B_Y637_K640T_YF],0.912
8,CTTIHYNYMCY [TP53_Y234_N239Y],1.95
9,SVKVFYKKCWF [EPHA7_Y202_S207F_YF],0.833
10,QTSSNYDDAMQ [ZNF281_Y531_I527T],0.975
11,DRKRQCELLKL [KIF4B_Y684_Y684C],0.689
12,GCKNRYDKDKP [THAP1_Y14],0.804
13,VIEQSYNETWL [SLC2A4_Y56],0.827
14,IPQEEYKATGL,0.677
15,QDRTYYESVRT [SPEN_Y633],1.37
16,GLDGSYLLRYS [SH2D1A_Y29_D33Y],0.57
17,VVGMLYVGRLP [LAMA2_Y2886_G2889R],0.602

row,Sequence,phosphorylation enrichment
1,DEQKKYFNAMK [SCN5A_Y1494_E1489D_YF],0.474
2,RSSPTYRDCLQ [LARGE2_Y682],0.522
3,YRDMDYRSYPR [RBM10_Y41],1.37
4,LILENYGADID [DNAH5_Y596],1.32
5,QRHYVYYYSYL [PTEN_Y176_R173H],6.74
6,AYQGKYTPSGQ [ALDOA_Y343_C339Y],0.375
7,GRMLQYLTVND [PPFIBP2_Y663_R658G],0.575
8,LAVVDYMRRQK [ATM_Y1915],0.437
9,LEPGIYIPEDD [XPNPEP3_Y455_I450L],1.22
10,VYSTDYYRVGG [NTRK2_Y706],11.8
11,VRSNHYAPEED [TJP1_Y1346_D1347A],0.605
12,CHKCTYKVTGL,0.693
13,TRNREYDDIDD [TTYH2_Y424_D423E],0.693
14,GKVADYIPQLA [GLS_Y249],0.538
15,SVVGPYEPPEV [TP53_Y220_V218G],0.69
16,FSIDFYRVGGH [NTRK2_Y707_T704I_YF],0.719
